According to patent US9988424 (DUKE UNIVERSITY, dated 2018):
Like-named read-outs stand apart in the source and are kept apart here.

Key:
B.63521_V1V2 Tags [1] = target: T1, B.63521_V1V2 Tags; assay: ELISA, OD405
T1 Env construct: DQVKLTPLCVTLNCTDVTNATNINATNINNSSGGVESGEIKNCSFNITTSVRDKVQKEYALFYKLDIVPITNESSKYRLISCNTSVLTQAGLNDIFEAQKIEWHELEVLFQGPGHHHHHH

B. 684-6 gp140C [2] = assay: ELISA, OD405
A.9004SS V1V2 Tags [3] = target: T2, A.9004SS V1V2 Tags; assay: ELISA, OD405
T2 Env construct: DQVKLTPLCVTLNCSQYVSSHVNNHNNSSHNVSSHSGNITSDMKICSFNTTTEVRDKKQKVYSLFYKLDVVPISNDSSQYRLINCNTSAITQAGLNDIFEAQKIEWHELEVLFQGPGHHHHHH

Con 6 gp120 [4] = assay: ELISA, OD405
B.63521 gp140C [5] = assay: ELISA, OD405
B.con gp140CF [6] = target: T3, B.con gp140CF; assay: ELISA, OD405
T3 construct: also called B.con.env03 gp140CF

B. 681-7 gp140C [7] = assay: ELISA, OD405
B.Case A2 V1/V2 Tags [8] = target: T4, B.Case A2 V1/V2 Tags; assay: ELISA, OD405
T4 Env construct: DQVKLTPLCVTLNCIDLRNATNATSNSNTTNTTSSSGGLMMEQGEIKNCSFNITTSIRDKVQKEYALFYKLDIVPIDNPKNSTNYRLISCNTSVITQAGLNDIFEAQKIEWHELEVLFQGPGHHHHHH

G.con gp140CF [9] = target: T5, G.con gp140CF; assay: ELISA, OD405
T5 construct: also called G.con.env03 gp140CF

D.9009SA V1V2 Tags [10] = target: T6, D.9009SA V1V2 Tags; assay: ELISA, OD405
T6 Env construct: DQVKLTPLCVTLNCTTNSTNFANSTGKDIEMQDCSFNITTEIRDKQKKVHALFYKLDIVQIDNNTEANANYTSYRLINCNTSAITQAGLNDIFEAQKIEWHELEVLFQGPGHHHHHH

B.62357 140C [11] = target: T7, B.62357 140C; assay: ELISA, OD405
T7 construct: also called B.62357 gp140C

B.040 gp140C = assay: ELISA, OD405
AE.con gp140CF [12] = target: T8, AE.con gp140CF; assay: ELISA, OD405
T8 construct: also called AE.con.env03 gp140CF

MN gp120 = MN gp120 (HIV-1)
AE.A244 gp120 delta 11 = target: T9, AE.A244 gp120 delta 11 (HIV-1); assay: SPR, mAb captured on anti-Fc, monomeric gp120 injected
T9 construct: also called E.A244gp120Δ11; AE.A244 Δ11 gp120

gp70 A.92RW020V1V2 = gp70 A.92RW020V1V2 (murine leukemia virus; HIV-1); assay: ELISA, mAb 0.001-100 ug/ml on coated V1V2 scaffold, OD450
J08 C.97ZA012V1V2 = target: T10, J08 C.97ZA012V1V2 (HIV-1); assay: as above
T10 chain: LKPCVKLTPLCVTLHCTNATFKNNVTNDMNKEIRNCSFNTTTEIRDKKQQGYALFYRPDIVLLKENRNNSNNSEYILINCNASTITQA

D.9009SA V1/V2 tags = assay: ELISA, OD405 at 10 ug/ml
B.63521_V1V2 Tags [13] = target: T1, B.63521_V1V2 Tags; assay: ELISA, OD405
B. 684-6 gp140C [14] = assay: ELISA, OD405; remark: listed apart in the source
A.9004SS V1V2 Tags [15] = target: T2, A.9004SS V1V2 Tags; assay: ELISA, OD405
Con 6 gp120 [16] = assay: ELISA, OD405; remark: listed apart in the source
B.63521 gp140C [17] = assay: ELISA, OD405; remark: listed apart in the source
B.con gp140CF [18] = target: T3, B.con gp140CF; assay: ELISA, OD405; remark: listed apart in the source
B. 681-7 gp140C [19] = assay: ELISA, OD405; remark: listed apart in the source
B.Case A2 V1/V2 Tags [20] = target: T4, B.Case A2 V1/V2 Tags; assay: ELISA, OD405
C.1086 gp140 = target: T11, C.1086 gp140; assay: ELISA, OD405
T11 construct: also called C.1086gp140C

G.con gp140CF [21] = target: T5, G.con gp140CF; assay: ELISA, OD405; remark: listed apart in the source
D.9009SA V1V2 Tags [22] = target: T6, D.9009SA V1V2 Tags; assay: ELISA, OD405
B.62357 140C [23] = target: T7, B.62357 140C; assay: ELISA, OD405; remark: listed apart in the source
AE.con gp140CF [24] = target: T8, AE.con gp140CF; assay: ELISA, OD405; remark: listed apart in the source

B1: PG9 reverted unmutated ancestor antibody (antibody, V domains shown)
VH: QVQLVESGGGVVQPGRSLRLSCAASGFTFSSYGMHWVRQAPGKGLEWVAVISYDGSNKYYADSVKGRFTISRDNSKNTLYLQMNSLRAEDTAVYYCAREAGGPDYRNGYNYYDFWSGYYNYYYMDVWGKGTTVTVSS
VL: QSALTQPASVSGSPGQSITISCTGTSSDVGSYNLVSWYQQHPGKAPKLMIYEVSKRPSGVSNRFSGSKSGNTASLTISGLQAEDEADYYCCSLTSTRRWVFGGGTKLTVL
notes: also called PG9 RUA; PG9_RUA
B1: no binding (tested: 10 ug/ml) (B.63521_V1V2 Tags [1]); no binding (tested: 10 ug/ml) (B. 684-6 gp140C [2]); no binding (tested: 10 ug/ml) (A.9004SS V1V2 Tags [3]). B1: no binding (tested: 10 ug/ml) (Con 6 gp120 [4]); no binding (tested: 10 ug/ml) (B.63521 gp140C [5]); no binding (tested: 10 ug/ml) (B.con gp140CF [6]). B1: no binding (tested: 10 ug/ml) (B. 681-7 gp140C [7]); no binding (tested: 10 ug/ml) (B.Case A2 V1/V2 Tags [8]); no binding (tested: 10 ug/ml) (G.con gp140CF [9]). B1: no binding (tested: 10 ug/ml) (D.9009SA V1V2 Tags [10]); no binding (tested: 10 ug/ml) (B.62357 140C [11]); no binding (tested: 10 ug/ml) (B.040 gp140C). B1: no binding (tested: 10 ug/ml) (AE.con gp140CF [12]).

B2: CH59 (antibody, V domains shown)
VH: EVQLVESGGGLVQPGRSLRLSCAASGFTFDDGAMHWVRQAPGKGLEWVSGISWNSNIIAYADSVKGRFTISRDNAKNSLYLEMNSLRVEDTALYYCAKDSPRGELPLNYWGQGTLVTVSS
VL: SYELTQPPSVSVSPGQTARITCSGDALPKNYAYWYQQKSGQAPVLVIYEDSKRPSGIPERFSGSSSGTMATLTISGAQVEDEADYYCYSTDSSGNHRVFGGGTKLTVL
notes: also called mAb CH59
B2 showed an IC50 (MN gp120) of 10 to 100 nM and a Kd (AE.A244 gp120 delta 11) of 2.2 nM.

B3: PG16 (antibody, V domains shown)
VH: QEQLVESGGGVVQPGGSLRLSCLASGFTFHKYGMHWVRQAPGKGLEWVALISDDGMRKYHSDSMWGRVTISRDNSKNTLYLQFSSLKVEDTAMFFCAREAGGPIWHDDVKYYDFNDGYYNYHYMDVWGKGTTVTVSS
VL: QSALTQPASVSGSPGQTITISCNGTSSDVGGFDSVSWYQQSPGKAPKVMVFDVSHRPSGISNRFSGSKSGNTASLTISGLHIEDEGDYFCSSLTDRSHRIFGGGTKVTVL
notes: also called mAb PG16; bnAb PG16
B3: no binding (tested: 100 ug/ml) (gp70 A.92RW020V1V2); no binding (tested: 100 ug/ml) (J08 C.97ZA012V1V2); no binding (tested: 10 ug/ml) (D.9009SA V1/V2 tags).

B4: 697D reverted unmutated ancestor antibody (antibody, V domains shown)
VH: QVQLVQSGAEVKKPGSSVKVSCKASGGTFSSYTISWVRQAPGQGLEWMGRIIPILGIANYAQKFQGRVTITADKSTSTAYMELSSLRSEDTAVYYCATSGVGLHFGYFDYWGQGTLVTVSS
VL: QSVLTQPPSVSGAPGQRVTISCTGSSSNIGAGYDVHWYQQLPGTAPKLLIYGNSNRPSGVPDRFSGSKSGTSASLAITGLQAEDEADYYCQSYDSSLSGYVFGTGTKVTVL
notes: also called 697D RUA
B4: no binding (tested: 10 ug/ml) (B.63521_V1V2 Tags [13]); no binding (tested: 10 ug/ml) (B. 684-6 gp140C [14]); no binding (tested: 10 ug/ml) (A.9004SS V1V2 Tags [15]). B4: no binding (tested: 10 ug/ml) (Con 6 gp120 [16]); no binding (tested: 10 ug/ml) (B.63521 gp140C [17]); no binding (tested: 10 ug/ml) (B.con gp140CF [18]). B4: no binding (tested: 10 ug/ml) (B. 681-7 gp140C [19]); no binding (tested: 10 ug/ml) (B.Case A2 V1/V2 Tags [20]); no binding (tested: 10 ug/ml) (C.1086 gp140). B4: no binding (tested: 10 ug/ml) (G.con gp140CF [21]); no binding (tested: 10 ug/ml) (D.9009SA V1V2 Tags [22]); no binding (tested: 10 ug/ml) (B.62357 140C [23]). B4: no binding (tested: 10 ug/ml) (AE.con gp140CF [24]).
